Measured values from publication PMC10881513 (Nature Communications, 2024).

Molecular target: ASFV RNA polymerase subunit vRPB3-11 (African swine fever virus, strain BA71V, UniProt Q65184 1-359)
Assay: cryo-EM structure
Details: both partners purified

Sequence of ASFV RNA polymerase subunit vRPB3-11 (Q65184 whole entry): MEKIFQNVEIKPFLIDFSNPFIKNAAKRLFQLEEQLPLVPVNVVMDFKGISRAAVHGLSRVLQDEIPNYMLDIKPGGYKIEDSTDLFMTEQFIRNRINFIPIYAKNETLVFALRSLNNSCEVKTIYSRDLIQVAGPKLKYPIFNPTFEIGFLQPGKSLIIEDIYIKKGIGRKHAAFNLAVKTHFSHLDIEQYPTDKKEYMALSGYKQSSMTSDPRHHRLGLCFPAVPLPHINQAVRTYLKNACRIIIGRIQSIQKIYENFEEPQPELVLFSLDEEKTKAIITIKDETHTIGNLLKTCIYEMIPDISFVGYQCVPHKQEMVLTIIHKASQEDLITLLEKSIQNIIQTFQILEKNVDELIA

B1: ASFV RNA polymerase subunit vRPB10 (natural protein)
chain: MLIPVVCFTCGFPIGTYAAIFDKARTEYIKTKMDGTLPQNIPLDASLQIELKDLITALGIPMRVCCRTHLITTLDYRKYY
  binding result: binds
